{
  "source": "patent US20040223972A1",
  "about": "(FUNCTIONAL GENETICS, published 2004)",
  "binders": {"B1": {"name": "purified TSG101 protein that contains only the UEV domain, Q99816 1-145 (protein)", "chain": "MAVSESQLKKMVSKYKYRDLTVRETVNVITLYKDLKPVLDSYVFNDGSSRELMNLTGTIPVPYRGNTYNIPICLWLLDTYPYNPPICFVKPTSSMTIKTGKHVDANGKIYLPYLHEWKHPQSDLLGLIQVMIVVFGDEPPVFSRP"}},
  "target": "biotinylated peptide Bio-…",
  "data": [
    {"binder": "B1", "values": [
      {"measurement": "Kd", "value": 2000, "unit": "nM"}
    ]}
  ]
}
